# Where two headings read alike, the source gives them in different places.
# B1: Fc-IL2v (Fc fusion)
# chain: GGGGSGGGGSAPASSSTKKTQLQLEHLLLDLQMILNGINNYKNPKLTRMLTAKFAMPKKATELKHLQCLEEELKPLEEVLNGAQSKNFHLRPRDLISNINVIVLELKGSETTFMCEYADETATIVEFLNRWITFAQSIISTLT
# Key:
# Experiment in all cases: cell-based or functional assay
# [1] = target: T1, human high-affinity IL-2 receptor complex, IL-2 CD25/CD122/CD132 (α/β/γ), on cells (human, UniProt P01589 22-272; P14784 27-551; P31785 23-369)
# T1 sequence (looked up) 1: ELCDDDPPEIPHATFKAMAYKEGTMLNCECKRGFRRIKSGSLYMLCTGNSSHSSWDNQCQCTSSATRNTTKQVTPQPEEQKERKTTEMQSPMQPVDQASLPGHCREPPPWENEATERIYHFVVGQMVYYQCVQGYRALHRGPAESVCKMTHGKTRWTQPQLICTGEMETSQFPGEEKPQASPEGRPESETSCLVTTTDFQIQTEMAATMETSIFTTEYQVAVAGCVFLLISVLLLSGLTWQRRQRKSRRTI
# T1 sequence (looked up) 2: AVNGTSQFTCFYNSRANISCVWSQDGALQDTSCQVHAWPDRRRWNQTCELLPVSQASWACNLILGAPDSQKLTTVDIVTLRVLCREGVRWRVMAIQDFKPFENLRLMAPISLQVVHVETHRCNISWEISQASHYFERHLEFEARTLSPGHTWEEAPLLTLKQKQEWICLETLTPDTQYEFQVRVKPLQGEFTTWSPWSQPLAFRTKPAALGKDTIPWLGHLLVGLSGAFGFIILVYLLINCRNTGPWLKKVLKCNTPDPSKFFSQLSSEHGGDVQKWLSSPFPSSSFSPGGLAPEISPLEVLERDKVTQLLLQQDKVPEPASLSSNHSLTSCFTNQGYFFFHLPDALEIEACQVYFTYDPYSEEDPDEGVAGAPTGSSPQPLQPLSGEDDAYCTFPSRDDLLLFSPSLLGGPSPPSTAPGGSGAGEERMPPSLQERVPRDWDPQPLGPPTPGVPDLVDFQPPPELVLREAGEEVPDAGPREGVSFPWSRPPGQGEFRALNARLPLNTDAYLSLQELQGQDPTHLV
# T1 sequence (looked up) 3: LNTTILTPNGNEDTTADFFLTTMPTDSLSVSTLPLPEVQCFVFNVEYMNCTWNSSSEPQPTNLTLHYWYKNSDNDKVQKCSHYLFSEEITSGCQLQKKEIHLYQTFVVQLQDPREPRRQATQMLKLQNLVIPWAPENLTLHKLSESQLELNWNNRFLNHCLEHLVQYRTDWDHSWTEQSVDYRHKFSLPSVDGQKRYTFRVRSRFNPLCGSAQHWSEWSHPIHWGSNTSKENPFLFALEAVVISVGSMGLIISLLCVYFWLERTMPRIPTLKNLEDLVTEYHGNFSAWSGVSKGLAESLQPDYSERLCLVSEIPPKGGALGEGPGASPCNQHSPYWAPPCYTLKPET
# [2] = target: T1, human high-affinity IL-2 receptor …; remark: listed apart in the source
# [3] = target: T1, human high-affinity IL-2 receptor …; remark: listed apart in the source
# [4] = target: T2, human intermediate-affinity IL-2 receptor complex, IL-2 CD122/CD132 (β/γ), on cells (human, UniProt P14784 27-551; P31785 23-369)
# T2 sequence (looked up) 1: T1 sequence (looked up) 2
# T2 sequence (looked up) 2: T1 sequence (looked up) 3
# [5] = target: T2, human intermediate-affinity IL-2 …; remark: listed apart in the source
# [6] = target: T1, human high-affinity IL-2 receptor …; remark: listed apart in the source
# [7] = target: T2, human intermediate-affinity IL-2 …; remark: listed apart in the source
# [8] = target: T2, human intermediate-affinity IL-2 …; remark: listed apart in the source
# [9] = target: T2, human intermediate-affinity IL-2 …; remark: listed apart in the source
# [10] = target: T1, human high-affinity IL-2 receptor …; remark: listed apart in the source
binder,measurement,setting,value
B1,"EC50 (read off the curve), pSTAT5 MFI in Treg cells of hPBMC",[1],~8 nM
same,"EC50 (read off the curve), pSTAT5 MFI in Treg cells of hPBMC",[2],~8 nM
same,"EC50, pSTAT5 induction in iTreg cells (ELISA)",[3],0.31 nM
same,"EC50, pSTAT5 induction in HH T cells (ELISA)",[4],24.9 nM
same,"EC50 (read off the curve), pSTAT5 MFI in NK cells of hPBMC",[5],~3 nM
same,"EC50, pSTAT5 in Treg cells of hPBMCs (flow cytometry)",[6],5.88 nM
same,"EC50, pSTAT5 in CD8 T cells of hPBMCs (flow cytometry)",[7],11.3 nM
same,"EC50, pSTAT5 in NK cells of hPBMCs (flow cytometry)",[7],1.53 nM
same,"EC50 (read off the curve), pSTAT5 MFI in NK cells of hPBMC",[8],~3 nM
same,"EC50 (read off the curve), pSTAT5 MFI in NK cells of hPBMC",[9],~3 nM
same,"EC50 (read off the curve), pSTAT5 MFI in Treg cells of hPBMC",[10],~8 nM

# Reference: patent publication US20220033784A1 (priority 2020, published 2022)
